Target: T1, DDX21 (Homo sapiens) (UniProt Q9NR30)
T1 sequence: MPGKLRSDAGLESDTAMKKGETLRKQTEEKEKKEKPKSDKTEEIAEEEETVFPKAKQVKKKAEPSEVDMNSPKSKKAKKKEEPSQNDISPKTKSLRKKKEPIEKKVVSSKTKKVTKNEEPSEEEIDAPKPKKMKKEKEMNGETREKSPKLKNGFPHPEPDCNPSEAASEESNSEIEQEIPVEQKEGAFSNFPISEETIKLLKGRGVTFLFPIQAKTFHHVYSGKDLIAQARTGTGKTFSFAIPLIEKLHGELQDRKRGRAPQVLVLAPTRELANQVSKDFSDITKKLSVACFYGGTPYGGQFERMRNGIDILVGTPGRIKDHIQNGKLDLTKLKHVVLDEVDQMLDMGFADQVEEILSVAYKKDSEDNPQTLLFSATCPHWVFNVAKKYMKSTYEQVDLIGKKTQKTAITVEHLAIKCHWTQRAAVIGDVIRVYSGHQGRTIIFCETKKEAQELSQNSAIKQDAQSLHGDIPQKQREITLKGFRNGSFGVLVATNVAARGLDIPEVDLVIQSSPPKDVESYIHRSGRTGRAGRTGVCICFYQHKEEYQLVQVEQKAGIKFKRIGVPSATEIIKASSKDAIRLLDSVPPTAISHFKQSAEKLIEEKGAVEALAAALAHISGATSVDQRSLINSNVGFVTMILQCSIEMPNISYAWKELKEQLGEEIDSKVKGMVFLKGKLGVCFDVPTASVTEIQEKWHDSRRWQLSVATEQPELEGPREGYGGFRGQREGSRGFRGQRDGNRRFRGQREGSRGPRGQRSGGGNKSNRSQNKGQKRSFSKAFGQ
Test: EMSA

With “AGUGGCAUAAACAUGGGCUUUGGCGUCAGACAGCCCUGAGCGGGGCCCCAUUGCCCCACCCCCGAGGAAGGCGAGGGGGGGUGGCAGGGGGCUGCGGAAAGGGGCUGGGCUGGGUUGGGCUGUCUGCAGCUCUAGUCCAGGAGGCUGAGACUUCGAGAGGGACUUAGAGAAGGCAGACGCAUCCCGAACUCGCUGGAGGACAAGGCUCAGCUCUUGCCAGGCCAAAUUGAGAC [MAGED2 TV2 5'-UTR]” the Kd was 100 nM.
